Source: patent publication US8389237B2, “Antibodies against RAMP3” (Medella Therapeutics Limited, priority 2007, dated 2013)

Tests used:
[1] = system: MDA-MB-436-GFP breast cancer cell line; assay: MTT Cell Proliferation assay, MDA-MB-436-GFP breast cancer cell line; type: cell-based; conditions: after 8 days of culture, FIG. 17
Protocol: (§1) Two groups of proliferation studies were carried out for each antibody. One group was used to study the effect on proliferation by the antibody in presence of endogenous adrenomedullin, while the other group was used to the study the effects of antibody in presence of exogenously added adrenomedullin. Varying concentrations of antibody were prepared in PBS to result in final well concentrations of 10 μg, 1 μg, 100 ng, 10 ng, 1 ng, 100 pg, 10 pg and 1 pg. Six replicates of each concentration of each antibody was carried out. This dose range was used in both groups. Adrenomedullin was added to the appropriate group to a final well concentration of 200 nM. 5-FluoroUracil (Fluka) was used as a positive control (100 mM) for the reduction in proliferation. PBS controls were also prepared. The plates were then incubated under standard conditions. Replacement and re-dosing of antibody and controls was carried out every 2 days. Mouse anti-GST antibody concentration responses were also calculated the similar way since it was the antibody control for the experiment
(§2) In order to check for consistency of the cells seeded, a 12-24 hours study was performed. Further time points were carried out at 2, 4, 6 and 8 days. […] The plate was read for absorbance at 595 nm (Spectramax M5e), using the software Softmax™ Pro 5.2.X 100035.

[2] = system: U-87 glioblastoma cancer cell line; assay: Apoptosis assay (caspase-3), U-87 cells; type: cell-based; conditions: U-87, 10 μg; FIG. 22
Protocol: (§3) The apoptosis assay was carried out using the Caspase-3 Assay kit (Sigma).
U-87 cells were prepared under standard conditions. A cell solution of 2×10^7 cells was made up in 2 ml of media were dispensed into polypropylene tubes.
(§4) 2×10^7 cells wens taken for each treatment. The treatment groups were, antibody treated cells (for each antibody), anti-Fas antibody, antibody and adrenomedullin treated cells, blank and adrenomedullin treated cells. The positive control used was anti-Fas monoclonal antibody (MBL). The final concentration of antibodies used was […] and for anti-Fas antibody was 500 ng.
(§5) The treated cell suspension in 2 ml media were incubated for 3 hours at 37° C. in a 5% CO2 atmosphere.
The assay buffer and lysis buffer given in the kit was prepared using the given 17 megohm water as per the standard instructions given in the protocol. After 3 hours of incubation, the cells were centrifuged at 600 g for 5 minutes at 4° C. The supernatant was discarded and the cells were resuspended in 1 ml PBS. The cells were once again centrifuged using the above mentioned conditions and the supernatant was discarded. The cell pellet was resuspended in 200 μl 1× lysis buffer and incubated on ice for 20 minutes. The lysed cells were centrifuged at 20,000 g for 15 minutes at 4° C. […] The absorbance was read at 405 nm (Spectramax M5e), using the software Softmax™ Pro 5.2.36.

[3] = system: PC-3 prostate cancer cell line; assay: MTT Cell Proliferation assay, PC-3 prostate cancer cell line; type: cell-based; conditions: PC-3, 10 μg, after 8 days of culture, FIG. 19
Protocol: as §1, §2

[4] = system: MDA-MB-436-GFP breast cancer cells; assay: MDA-MB-436-GFP xenograft in CD1 nude mice; type: in vivo, CD1 nude (nu/nu) mice; conditions: right flank of CD1 nude mice, 6 weeks
Protocol: MDA-MB-436-GFP cells were cultured in RPMI media containing penicillin (50 U/ml), streptomycin (50 μg/ml), glutamine (1 mg/ml), and supplemented with 10% fetal bovine serum. Cells were cultured under a humid 5% CO2/95% air atmosphere, and fed with fresh medium every 2 days, being routinely monitored for mycoplasma contamination. Cells growing exponentially were harvested using Trypsin EDAT solution. All culture media components were purchased from Invitrogen Life Technologies
Animal work was performed in the animal facility of the University of Sheffield. Male 4-to-5-week-old CD1 nude (nu/nu) mice were used. Mice were acclimated and housed in sterile cages in groups of four or less under laminar flow hoods in a temperature-controlled room with a 12-hour light/12-hour dark schedule, and fed autoclaved chow and water ad libitum.
CD1 nude (nu/nu) nude mice were implanted with MDA-MB-436-GFP breast cancer cells. For the cell implantations, MDA-MB-436-GFP cells, grown in culture, were washed with PBS, dispersed in a 0.05% solution of trypsin, and resuspended. […] Tumors were measured with a digital venier calliper (Site), and tumour volumes were determined using the formula width×length×height×0.52 (for ellipsoid form), these measurement were taken twice weekly. […]

[5] = system: HCT116 colon cancer cell line; assay: MTT Cell Proliferation assay, HCT116 colon cancer cell line; type: cell-based; conditions: HCT116, 10 μg, after 8 days of culture; FIG. 21
Protocol: as §1, §2

[6] = system: MDA-MB-436-GFP breast cancer cell line; assay: Apoptosis assay (caspase-3), MDA-MB-436-GFP cells; type: cell-based; conditions: 10 μg, FIG. 23
Protocol: as §3, §4, §5
The assay buffer and lysis buffer given in the kit was prepared using the given 17 megohm water as per the standard instructions given in the protocol. After 3 hours of incubation, the cells were centrifuged at 600 g for 5 minutes at 4° C. The supernatant was discarded and the cells were resuspended in 1 ml PBS. The cells were once again centrifuged using the above mentioned conditions and the supernatant was discarded. The cell pellet was resuspended in 200 μl 1× lysis buffer and incubated on ice for 20 minutes. The lysed cells were centrifuged at 20,000 g for 15 minutes at 4° C. The cell lysine were then laid out in a 96 well flat bottomed plate as shown in FIG. 6 and incubated overnight. The absorbance was read at 405 nm (Spectramax M5e), using the software Softmax™ Pro 5.2.36.

[7] = system: U-87 glioblastoma cell line; assay: MTT Cell Proliferation assay, U-87 glioblastoma cell line; type: cell-based; conditions: U-87, 10 μg dose, after 8 days of culture; FIG. 14
Protocol: The cell culture was carried out under aseptic conditions on Nunclon™ treated tissue culture plastics. The U-87 glioblastoma cells (ATCC noHTB-14) used for this project were cultured in standard EMEM (Earle's Minimum Essential Medium) media (Gibco) with 10% Fetal Calf Serum (Gibco) and 5% Penicillin/Streptomycin antibiotic (Sigma). The frozen cells were thawed at 37° C. for 2 minutes. The cells were then immediately transferred to 75 cm2 flask with 10 ml of media. The culture was incubated at 37° C. with 5% CO2 to attain confluency. The media was changed every three days and the cells were then subcultured after reaching 80-90% confluency. […]
The U87 glioblastoma cells were grown under standard conditions (as mentioned above). The total number of cells were counted using a haemocytometer (Hawksley) and the concentration was calculated using the following equation: […]
Two groups of proliferation studies were carried out for each antibody. […] Mouse anti-GST antibody concentration responses were also calculated the similar way since it was the antibody control for the experiment
In order to check for consistency of the cells seeded, a 12-24 hours study was performed. […] The plate was read for absorbance at 595 nm (Spectramax M5e), using the software Softmax™ Pro 5.2.X 100035.
The proliferation/survival of SW-13 and U87 (Glioblastoma cell line) cells was determined using the MTT assay.

B1: JF2: monoclonal anti-RAMP-3 antibody, IgG, IgG1 subtype (antibody, V domains shown)
VH: QVQLVESGGGVVQPGKSLRLSCAASGFTFSSYGMYWVRQAPGKGLEWVAVISYDGSNKYYADSVKGRFTISRDNSKNTLYLQMNSLRAEDTAVYNCAKEMRYGSGRKAIKYYYGMDVWGQGTTVTVSSASTKGPSVFPLA
VL: DIQMTQSPSSLSASLGERVSLTCRASQDIGSNLNWLQQEPDGTIKRLIYATSSLDSGVPKRFSGSRSGSDYSLTISSLESEDFVDYYCLQYASSPPTFGGGTKLEIKRADAAPTVSIFPPSSKLG
In the case of B1, the reduction in proliferation ([1]; 10 μg (greatest reduction)) is reported as 12%, the “reduction in proliferation compared to controls” value ([1]; doses 1 μg and 10 μg) is reported as “significant reduction in proliferation” and the “increase levels of caspase-3” value [2] is reported as 26%. For the same molecule, the reduction in proliferation ([3]; in the absence of exogenously added adrenomedullin) was 22%, the reduction in proliferation ([3]; in the presence of adrenomedullin) was 37% and the tumour volume ([4]; versus control groups, FIG. 24) was “rates of growth within the treatment groups are considerably slower”. The tumour weights ([4]; calculated back using the volumes of tumours, FIG. 25) was “still remain below control groups”, the “reduction in proliferation compared to controls” value [5] was “no statistically significant reduction in proliferation” and the “levels of caspase-3 (apoptosis), significance” value [6] was “only antibody JB3 showed a significant increased”. It also gave a reduction in proliferation [7] of 40%.
